Patent US20100322938A1 (COMPUGEN, published 2010)

Target: T1, CGEN-CL1 peptide FYFWMNGDRIDSLLENDRQQT [SEQ ID NO: 1] (human, acetylated at its N-terminus; amidated at its C-terminus)
T1 construct: Made by solid-phase synthesis (Pepscan); molecular weight 2690.1
T1 peptide: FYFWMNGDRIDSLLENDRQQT
Experiment: SPR competition (BIAcore), peptides preincubated 30 min at 10 uM each, injected over immobilized clusterin
Method: Peptide-protein interaction was analyzed using surface plasmon resonance. Analysis of the interaction between CGEN-CL1 [SEQ ID NO:1] and recombinant human clusterin (Biovendor, Modrice, Czech republic cat no: RD172034100) was conducted using the BIAcore biosensor (Pharmacia Biosensor, Uppsala, Sweden). Clusterin was immobilized directly to a CM5 sensor chip (2000 resonance units (RU)). Solution containing either 10 μM of CGEN-CL1 [SEQ ID NO:1] peptide or a mixture of CGEN-CL1 and its partner helix (SEQ ID NO:5), 10 μM each, preincubated for 30 minutes at room temperature, was injected to the BIAcore. As a background, the solutions were also injected onto an empty flow cell with no immobilized ligand and the binding levels achieved were subtracted. Data was analyzed using BIAevaluation software.

- binding result: binds
B1: partner helix peptide RLTRKYNELLKSYQWKMLNTSS [SEQ ID NO: 5] (peptide)
peptide: Ac-RLTRKYNELLKSYQWKMLNTSS-NH2
notes: Made by solid-phase synthesis (Pepscan); molecular weight 2760.2; also called helix partner; counterpart helix peptide
